Measured values from PMC4054823.

Target: SERCA (UniProt P04191)
Experiment: time-resolved FRET in reconstituted lipid vesicles
Settings: reference: unphosphorylated labeled PLB; sites S16

other: mole fraction of PLB bound to SERCA (xDA): weaker; reference 0.99 ± 0.01
Substance: phospholamban (PLB) (from UniProt P61015) PKA-phosphorylated, HPLC-purified labeled PLB (pPLB)
